Changes are numbered by the printed parent chain.
B1: C6ML3-9 (scFv)
scFv: QVQLLQSGAELKKPGESLKISCKGSGYSFTSYWIAWVRQMPGKGLEYMGLIYPGDSDTKYSPSFQGQVTISVDKSVSTAYLQWSSLKPSDSAVYFCARHDVGYCSSSNCAKWPEYFQHWGQGTLVTVSSGGGGSGGGGSGGGGSQSVLTQPPSVSAAPGQKVTISCSGSSSNIGNNYVSWYQQLPGTAPKLLIYGHTNRPAGVPDRFSGSKSGTSASLAISGFRSEDEADYYCASWDYTLSGWVFGGGTKLTVLG
notes: C6.5 with this VL CDR3; C-terminal myc and His6 tags; parent of the VH CDR3 libraries; also called C6ML3-9 (wt); wt C6ML3-9
B2: C6ML3-5 (scFv)
scFv: B1 scFv with S235A, T239S
notes: C6.5 with this VL CDR3; C-terminal myc and His6 tags
B3: C6MH3-B1 (scFv)
scFv: B1 scFv with S105T, S106D, S107R, N108T
notes: C6ML3-9 with this VH CDR3; C-terminal His6; also called C6MNH3-B1

Assays:
[1] = biological target: T1, c-erbB-2 expressed on cells (SK-OV-3, SK-BR-3) (UniProt P04626 23-1255, limits assumed); assay: FACS, biotinylated sFv on SK-OV-3 cells
T1 construct: whole, on cells; also called native c-erbB-2 expressed on cells

[2] = biological target: T2, c-erbB-2 ECD with a Ser-Gly-His6 C-terminal fusion (UniProt P04626 23-652); assay: SPR (BIAcore)
T2 construct: extracellular domain; expressed from CHO cells, IMAC purified; coupled to a CM5 chip, adsorbed to polystyrene, or biotinylated and captured on avidin; also called c-erbB-2 extracellular domain; biotinylated c-erbB-2 ECD

[3] = biological target: T2, c-erbB-2 ECD with a Ser-Gly-His6 …; assay: SPR (BIAcore); remark: listed apart in the source
[4] = biological target: T2, c-erbB-2 ECD with a Ser-Gly-His6 …; assay: SPR (BIAcore); clone eluted with 1 µM c-erbB-2 ECD

Row | Binder | half life (t1/2) on the cell surface [1] [min] | fold increase in affinity vs wild-type sFv (C6.5) [2] [fold] | kon [3] [M⁻¹ s⁻¹] | koff [4] [s⁻¹]
1 | B1 | 11 | 16 | 610000 | –
2 | B2 | – | – | 590000 | 0.0019
3 | B3 | 102 | – | – | –
